Data published in PMC5706562.

Target: Psy2 with aa 25–129 deleted, fused to lexA-DBD (S. cerevisiae)
Test: two-hybrid

- percent reduction of the two-hybrid interaction: 50%
B1: DDC2 fused to B42-AD (natural protein)
chain: MRRETVGEFSSDDDDDILLELGTRPPRFTQIPPSSAALQTQIPTTLEVTTTTLNNKQSKNDNQLVNQLNKAQGEASMLRDKINFLNIEREKEKNIQAVKVNELQVKHLQELAKLKQELQKLEDEKKFLQMEARGKSKREVITNVKPPSTTLSTNTNTITPDSSSVAIEAKPQSPQSKKRKISDNLLKKNMVPLNPNRIIPDETSLFLESILLHQIIGADLSTIEILNRLKLDYITEFKFKNFVIAKGAPIGKSIVSLLLRCKKTLTLDRFIDTLLEDIAVLIKEISVHPNESKLAVPFLVALMYQIVQFRPSATHNLALKDCFLFICDLIRIYHHVLKVPIHESNMNLHVEPQIFQYELIDYLIISYSFDLLEGILRVLQSHPKQTYMEFFDENILKSFEFVYKLALTISYKPMVNVIFSAVEVVNIITSIILNMDNSSDLKSLISGSWWRDCITRLYALLEKEIKSGDVYNENVDTTTLHMSKYHDFFGLIRNIGDNELGGLISKLIYTDRLQSVPRVISKEDIGMDSDKFTAPIIGYKMEKWLLKLKDEVLNIFENLLMIYGDDATIVNGEMLIHSSKFLSREQALMIERYVGQDSPNLDLRCHLIEHTLTIIYRLWKDHFKQLREEQIKQVESQLIMSLWRFLVCQTETVTANEREMRDHRHLVDSLHDLTIKDQASYYEDAFEDLPEYIEEELKMQLNKRTGRIMQVKYDEKFQEMARTILESKSFDLTTLEEADSLYISMGL
